Experimental data reported in publication PMC11399261 (Nature Communications, 2024).
Blank lines part the entries; values can stand above or below the binder they belong to.

How the values were obtained:
Cdt1-Mcm2-7 heptamer = Cdt1-Mcm2-7 heptamer (S. cerevisiae, UniProt P47112;P29469;P24279;P30665;P29496;P53091;P38132); experiment: pull-down
[1] = molecular target: Orc2-ΔN200 containing ORC (S. cerevisiae, UniProt P54784;P32833;P54790;P54791;P50874;P38826); experiment: MCM loading assay on DNA beads
[2] = molecular target: Orc2-I194E containing ORC (S. cerevisiae, UniProt P54784;P32833;P54790;P54791;P50874;P38826, I194E); experiment: MCM loading assay on DNA beads
[3] = molecular target: origin recognition complex (ORC), wild type (S. cerevisiae, UniProt P54784;P32833;P54790;P54791;P50874;P38826); experiment: MCM loading assay on DNA beads
[4] = molecular target: Orc2-ΔN175 containing ORC (S. cerevisiae, UniProt P54784;P32833;P54790;P54791;P50874;P38826); experiment: MCM loading assay on DNA beads

binding result (Cdt1-Mcm2-7 heptamer): binds
B1: GST-Orc2N200-I194E (domain or fragment)
chain: MLNGEDFVEHNDILSSPAKSRNVTPKRVDPHGERQLRRIHSSKKNLLERISLVGNERKNTSPDPALKPKTPSKAPRKRGRPRKIQEELTDRIKKDEKDTISSKKKRKLDKDTSGNVNEESKTSNNKQVMEKTGIKEKREREKIQVATTTYEDNVTPQTDDNFVSNSPEPPEPATPSKKSLTTNHDFTSPLKQIEMNNLKE

binding result [1]: binds | binding result [2]: binds | binding result [3]: binds | binding result [4]: binds
B2: His-SUMO-Cdc6 (natural protein)
chain: MSAIPITPTKRIRRNLFDDAPATPPRPLKRKKLQFTDVTPESSPEKLQFGSQSIFLRTKALLQKSSELVNLNSSDGALPARTAEYEQVMNFLAKAISEHRSDSLYITGPPGTGKTAQLDMIIRQKFQSLPLSLSTPRSKDVLRHTNPNLQNLSWFELPDGRLESVAVTSINCISLGEPSSIFQKIFDSFQDLNGPTLQIKNMQHLQKFLEPYHKKTTFVVVLDEMDRLLHANTSETQSVRTILELFLLAKLPTVSFVLIGMANSLDMKDRFLSRLNLDRGLLPQTIVFQPYTAEQMYEIVIQKMSSLPTIIFQPMAIKFAAKKCAGNTGDLRKLFDVLRGSIEIYELEKRFLLSPTRGSLNSAQVPLTPTTSPVKKSYPEPQGKIGLNYIAKVFSKFVNNNSTRTRIAKLNIQQKLILCTIIQSLKLNSDATIDESFDHYIKAITKTDTLAPLQRNEFLEICTILETCGLVSIKKTKCKGKTKRFVDKIDVDLDMREFYDEMTKISILKPFLH
